Here are results for two substances from US20170073386A1.

The target in assay [1] is murine GITR expressed on cells (mouse) (UniProt O35714). Description: cell-based or functional assay.
The target is the same in assay [2]. Put plainly: flow cytometry after treatment of mice with mGITRL-FP IgG2a; competitor DTA-1 as stain.

murine GITR expressed on cells (mouse), sequence (O35714 20-228): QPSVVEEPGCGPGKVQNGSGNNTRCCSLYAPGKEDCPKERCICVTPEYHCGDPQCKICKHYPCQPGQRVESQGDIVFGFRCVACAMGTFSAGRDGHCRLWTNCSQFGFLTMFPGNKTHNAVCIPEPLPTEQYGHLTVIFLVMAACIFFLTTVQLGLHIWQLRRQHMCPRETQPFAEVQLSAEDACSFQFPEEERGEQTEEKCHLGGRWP

In assay [1], DTA-1 anti-GITR antibody yielded an EC50, GITR-dependent NFκB reporter gene cell assay (Jurkat mGITR) of 2.31 nM.
On to mGITRL-FP mIgG2a (Fc fusion), for which, in assay [1], the EC50, GITR-dependent NFκB reporter gene cell assay (Jurkat mGITR) came to 0.05 nM and the fold potency against DTA-1, GITR-dependent NFκB reporter gene cell assay amounted to 50 fold. The reduction in GITR MFI (DTA-1 staining) on Tregs in assay [2] was over 75%.
